Consider five proteins from paper PMC3789969, “The Allosteric Role of the AAA^+ Domain of ChlD Protein from the Magnesium Chelatase of Synechocystis Species PCC 6803” (The Journal of Biological Chemistry, 2013).

Common to all, as to type: biochemical, Synechocystis sp. PCC 6803
Substrate in data set [1]: Nc1ncnc2c1ncn2[C@@H]1O[C@H](COP(=O)(O)OP(=O)(O)OP(=O)(O)O)[C@@H](O)[C@H]1O
The experiment in a line: continuous fluorometric MgDIX formation assay, Hill fit. Particulars: 10 mM free Mg2+, 8 μM DIX, pH 7.7, 34 °C.

Substrate in data set [2]: Nc1ncnc2c1ncn2[C@@H]1O[C@H](COP(=O)(O)OP(=O)(O)OP(=O)(O)O)[C@@H](O)[C@H]1O
The experiment in a line: continuous fluorometric MgDIX formation assay, Michaelis-Menten fit. Particulars: 10 mM free Mg2+, 8 μM DIX, pH 7.7, 34 °C, I 0.1, non-cooperative.

Substrate in data set [3]: CC1=C(CCC(=O)O)c2cc3nc(cc4[nH]c(cc4C)cc4[nH]c(cc1n2)cc4C)C(C)=C3CCC(=O)O
The data set is described as above. Particulars: 5 mM ATP, Mg2+, pH 7.7, 34 °C, I 0.1.

B1: magnesium chelatase (ChlI, His6-ChlD, His6-ChlH); nucleotide sites (Synechocystis sp. PCC 6803 substr. Kazusa) (protein)
chain 1: MTATLAAPSKTRRVVFPFTAIVGQDEMKLALLLNVIDPKIGGVMIMGDRGTGKSTTIRALADLLPEIEVVANDPFNSSPSDPEMMSEEVRIRVDSQEPLSIVKKKVTMVDLPLGATEDRVCGTIDIEKALSEGVKAFEPGLLAKANRGILYVDEVNLLDDHLVDVLLDSAAGGWNTVEREGISIRHPARFVLVGSGNPEEGELRPQLLDRFGMHAEIRTVREPELRVKIVEQRTEFDQNPHPFCDQYQTEQEALQAKIVNAQNLLPQVTIDYDYRVKVSEVCAELDVDGLRGDIVTNRAAKALAAFEGRTEVTVDDISRVIVLCLRHRLRKDPLESIDSGSKVEKVFKRVFGVVDEA
chain 2: not shown
notes: recombinant from E. coli; His6 tags on ChlD and ChlH, ChlI untagged; ATPase sites in ChlI, allosteric nucleotide site proposed in ChlD; with Magnesium-chelatase subunit ChlH
The term kcat denotes the maximal rate divided by the concentration of active sites. For B1, in data set [1] (I 0.1, Hill n 2.0 ± 0.2), the K0.5 was 0.43 ± 0.02 mM and the kcat turned out to be 0.00675 ± 0.000233 s⁻¹.

B2: magnesium chelatase (ChlI, His6-ChlD, His6-ChlH); nucleotide sites (Synechocystis sp. PCC 6803 substr. Kazusa; P72772:R208A) (protein)
chain 1: B1 chain 1
chain 2: not shown
notes: as for B1
B2: in data set [1] (I 0.1, Hill n 2.0 ± 0.10), the K0.5 came to 0.78 ± 0.02 mM and the catalytic constant (kcat) is 0.00438 ± 8.3e-05 s⁻¹.

B3: magnesium chelatase (ChlI, His6-ChlD, His6-ChlH); nucleotide sites (Synechocystis sp. PCC 6803 substr. Kazusa; P72772:R289A) (protein)
chain 1: B1 chain 1
chain 2: not shown
notes: as for B1
Usually Km stands for the substrate concentration at which the rate is half of its maximum. With B3, in data set [2], the Michaelis constant (Km) turned out to be 1790 ± 320 µM and the kcat amounted to 0.0009 ± 8.3e-05 s⁻¹.

B4: magnesium chelatase (ChlI, His6-ChlD, His6-ChlH); nucleotide sites (Synechocystis sp. PCC 6803 substr. Kazusa; P72772:E152Q) (protein)
chain 1: B1 chain 1
chain 2: not shown
notes: as for B1
Turning to B4, in data set [1] (I 0.1, Hill n 1.8 ± 0.17), the K0.5 is 0.72 ± 0.04 mM and the kcat worked out at 0.0018 ± 6.7e-05 s⁻¹.

B5: magnesium chelatase (ChlI, His6-ChlD, His6-ChlH); porphyrin site (Synechocystis sp. PCC 6803 substr. Kazusa) (protein)
chain: MFTNVKSTIRRVDPEALNGRQLLKVVYVVLESQYQSALSAAVRNINRTNSSLAIQLTGYLIEELRDPENYANFKHDVSEANLFIASLIFIEDLADKVVEAVTPYRDNLDAAIVFPSMPQVMRLNKMGSFSMAQLGQSKSAIAQFMKKRKENSSGAGFQDAMLKLLRTLPTVLKYLPVEKAQDARNFMLSFQYWLGGSQENLENFLLMLTDKYVYPDLGLDKLVNYQEPVVYPDMGIWHPLSMQMFENVKDYLEWYNQRPDISEDLKDPLAPCIGLIMQRTHLVTGDDAHYVGMVQELEAMGARVICVFSGGLDFSKPVNEYFWDKSVNGVEPLPIVDAVVSLTGFALVGGPARQDHPRAIESLKKLNRPYMCALPLVFQTTEEWEASDLGLHPIQVALQIAIPELDGAIEPIILSGRDGSTGRAIALQDRLEAIAQRAMKWANLRKKPKLDKKVAITVFSFPPDKGNVGTAAYLDVFGSIYEVMKGLQGNGYDVQDLPGSAKELMEAVIHDAQAQYNSPELNIAHRMSVEQYERLTPYSVRLEENWGKPPGHLNSDGQNLLIYGKEFGNVFIGVQPTFGYEGDPMRLLFSRSASPHHGFAAYYTYLNHIWKADAVLHFGTHGSLEFMPGKQMGMSGECYPDNLIGTIPNLYYYAANNPSEATIAKRRGYASTISYLTPPAENAGLYKGLQELNELIGSYQTLKDSGRGIQIVNTIMDQARICNLDQDVNLPDINAEEMDQGQRDTIVGSVYRKLMEIESRLLPCGLHVIGQPPSAEEAIATLVNIASLDREDEGIWALPTLIAESIGRNMEEIYRNSDKGILADVELLQDITLATRAAVAALVQEQINADGRVSFVSKLNFFKIGKKAPWVKSLCDSGYPNVNEEKLKPLFEYLEFCLEQVCADNEFGGLLQALEGEYVLPGPGGDPIRNPNVLPTGKNIHALDPQSIPTLAAVQSAKVVVDRLLERQRAENGGNYPETIASVLWGTDNIKTYGESLAQIMWMVGAKPVPDALGRVNKIELVPLEELGRPRIDVVVNCSGVFRDLFINQMNLLDQAVKLAAEADEPLEMNFVRKHALEQAEEMGIGVREAATRIFSNASGSYSSNVNLAVENSSWEDESELQEMYLKRKSFAFNSDNPGMMDQNRDMFERALKTADATFQNLDSSEISLTDVSHYFDSDPTKLISTLRDDGKAPAAYIADTTTANAQVRTLSETVRLDARTKLLNPKWYEGMLSHGYEGVRELSKRLVNTMGWSATAGAVDNWVYEDANSTFIKDEEMCKRLMDLNPNSFRRMVSTLLEVNGRGYWETSDENLERLQELYQEVEDRIEGVE
notes: recombinant from E. coli; His6 tags on ChlD and ChlH; copies are assay ratio; with Magnesium-chelatase subunit ChlI; Magnesium-chelatase subunit ChlD
With B5, in data set [3], the Km was found to be 5.74 ± 0.77 µM and the kcat amounted to 0.0188 ± 0.001 s⁻¹.
